Test results published in paper doi:10.1101/2024.07.10.602847.

Target: AeCRK^G359E-mCherry (Aeschynomene evenia)
Test: co-IP

Row | fold enrichment compared to the negative control MtLYK3-CFP | Substance
1 | 7.37 fold | AeCRK^G359E-mCherry (receptor)
2 | 2.9 fold | AeRLCK2-YFP (natural protein)
